Literature values as cited in paper PMC3040723.

Molecular target: IscU (Escherichia coli) (UniProt P0ACD4)
Sequence (P0ACD4 whole entry): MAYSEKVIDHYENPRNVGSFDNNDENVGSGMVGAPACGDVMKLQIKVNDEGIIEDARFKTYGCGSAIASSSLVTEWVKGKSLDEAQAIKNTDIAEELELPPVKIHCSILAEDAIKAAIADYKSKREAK

Sequence of HscB (P0A6L9 whole entry): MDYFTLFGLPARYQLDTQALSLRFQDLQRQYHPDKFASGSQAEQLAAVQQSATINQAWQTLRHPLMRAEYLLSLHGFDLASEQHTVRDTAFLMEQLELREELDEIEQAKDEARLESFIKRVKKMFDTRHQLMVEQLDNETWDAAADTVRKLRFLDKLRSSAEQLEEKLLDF

## HscB (from UniProt P0A6L9)
  Kd: 13 µM
